{
  "source": "patent US20040063656A1",
  "molecular_target": "wild type human VEGFR-3 (Flt4), long form (human) (UniProt P35916)",
  "sequence (P35916 25-1363 limits assumed)": "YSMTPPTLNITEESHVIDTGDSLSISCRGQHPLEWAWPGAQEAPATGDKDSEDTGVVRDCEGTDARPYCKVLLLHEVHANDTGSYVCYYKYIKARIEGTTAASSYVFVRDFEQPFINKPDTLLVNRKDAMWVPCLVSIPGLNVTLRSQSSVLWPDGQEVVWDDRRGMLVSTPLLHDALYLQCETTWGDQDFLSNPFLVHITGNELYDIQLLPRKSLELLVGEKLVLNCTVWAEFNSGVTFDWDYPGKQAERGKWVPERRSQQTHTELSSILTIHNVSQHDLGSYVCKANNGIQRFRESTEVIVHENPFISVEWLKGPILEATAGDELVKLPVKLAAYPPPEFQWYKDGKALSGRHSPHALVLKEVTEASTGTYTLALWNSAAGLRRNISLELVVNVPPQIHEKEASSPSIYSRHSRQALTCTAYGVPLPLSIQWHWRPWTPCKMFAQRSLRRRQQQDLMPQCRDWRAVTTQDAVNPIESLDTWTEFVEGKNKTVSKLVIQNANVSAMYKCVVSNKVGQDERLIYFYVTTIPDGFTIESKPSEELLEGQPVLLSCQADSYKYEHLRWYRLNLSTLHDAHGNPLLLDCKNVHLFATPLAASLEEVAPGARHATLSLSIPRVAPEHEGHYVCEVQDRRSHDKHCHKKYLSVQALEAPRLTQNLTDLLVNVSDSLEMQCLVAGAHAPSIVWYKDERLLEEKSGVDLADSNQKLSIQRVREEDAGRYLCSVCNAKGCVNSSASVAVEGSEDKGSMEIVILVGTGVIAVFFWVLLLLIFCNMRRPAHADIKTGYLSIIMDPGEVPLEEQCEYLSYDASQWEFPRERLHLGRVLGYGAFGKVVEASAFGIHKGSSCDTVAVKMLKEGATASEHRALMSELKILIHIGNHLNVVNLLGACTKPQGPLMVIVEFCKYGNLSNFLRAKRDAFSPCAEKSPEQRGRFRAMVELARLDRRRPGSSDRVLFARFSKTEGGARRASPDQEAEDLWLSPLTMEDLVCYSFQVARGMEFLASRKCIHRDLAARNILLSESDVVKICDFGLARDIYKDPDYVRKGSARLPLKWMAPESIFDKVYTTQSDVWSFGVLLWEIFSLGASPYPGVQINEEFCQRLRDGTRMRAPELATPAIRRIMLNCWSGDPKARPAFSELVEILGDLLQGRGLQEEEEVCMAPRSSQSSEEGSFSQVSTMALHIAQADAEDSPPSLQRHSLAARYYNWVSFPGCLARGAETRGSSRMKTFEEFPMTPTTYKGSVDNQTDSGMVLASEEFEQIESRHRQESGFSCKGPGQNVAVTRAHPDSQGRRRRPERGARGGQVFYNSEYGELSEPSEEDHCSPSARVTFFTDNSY",
  "assay": "cell-based or functional assay",
  "data": [
    {"substance": "P1114L mutant of human VEGFR-3 (long form) (from UniProt P35916 25-1363) (receptor)", "values": [
      {"measurement": "tyrosine phosphorylation of VEGFR-3 (immunoprecipitation and anti-phosphotyrosine Western blot), 293T cells co-transfected with 75% of WT and 25% of mutant plasmid", "result": 90, "unit": "% decrease"},
      {"measurement": "tyrosine phosphorylation of VEGFR-3 (immunoprecipitation and anti-phosphotyrosine Western blot), wild type and mutant vectors co-transfected at a 1:1 ratio (% of the wild type alone)", "result": 4}
    ]}
  ]
}
